The values that follow come from patent publication US6897296.

The target in this assay is bacterially expressed recombinant Mch4 (GST-Mch4 fusion protein) (human).

Turning to DEVD-CHO (tetrapeptide DEVD aldehyde), the Ki (usually the equilibrium dissociation constant of an inhibitor or competing ligand from its target) amounted to 14 nM.
